The source of these data is patent US9175313B2, “Three-dimensional structure of isoprene synthase and its use thereof for generating variants” (Danisco US Inc., priority 2009, dated 2015).

This test can be described thus: Specific activity measurement of purified isoprene synthase variants (4 mM DMAPP, 30 C, GC-MS headspace). The conditions noted are these: 50 mM NaCl, 50 mM Tris pH = 8, 30° C.; for Variant S.A./WT S.A.: ratio to WT. The format is biochemical. The protocol:
1. Initial Purification—Resuspend the pellet in 3 ml of fresh lysis buffer. Break cells by passing them through the French Press using the small cylinder. Centrifuge samples for 1 hour at 30,000×G and collect the supernatant. Retain pellet in order to test for presence of insoluble protein. Pre equilibrate 0.5 mL Ni Sepharose 6 Fast Flow resin (Amersham) in a 20 ml disposable column with 10 mL of Ni wash buffer. Add protein to column and shake for 60 min at 4 C to bind protein. Elute protein with 2.5 mL Ni elution buffer.
2. Buffer Exchange—Equilibrate a PD-10 column (GE Healthcare) with 25 mL of PD-10 buffer. Load protein on to column and elute with 3.5 mL of PD-10 buffer.
10 uL of purified enzyme was incubated with 4 mM DMAPP, 50 mM MgCl2 in a buffer containing 50 mM Tris and 50 mM NaCl (pH=8) to a final volume of 100 uL for 15 min. at 30 C in gas tight 2 mL vials. Reactions were terminated with the addition of 100 uL of […] EDTA, pH=8. Samples were analyzed by GC-MS to determine the concentration of isoprene in the headspace of the vials. All specific activity measurements were performed in triplicate.
Protein concentration was determined by measuring the absorbance of each protein solution at 280 nm on a Helwlett Pachard 8453 UV-Vis spectrophotometer and converting the absorbance to protein concentration using the extinction coefficient as determined on the Expasy website (Gasteiger E., Hoogland C., Gattiker A., Duvaud S., Wilkins M. R., Appel R. D., Bairoch A.; Protein Identification and Analysis Tools on the ExPASy Server; (In) John M. Walker (ed): The Proteomics Protocols Handbook, Humana Press (2005). pp. 571-607). The protein concentrations of isoprene synthase variants assayed for KM and kcat determination were verified by comparative gel electrophoresis of a dilution series of each protein (FIG. 61).

B1: PC: P. alba MEA L494P T536C (+) TEV; pDW113, SEQ ID NO: 93 (protein)
chain: MEARRSANYEPNSWDYDYLLSSDTDESIEVYKDKAKKLEAEVRREINNEKAEFLTLLELIDNVQRLGLGYRFESDIRGALDRFVSSGGFDAVTKTSLHGTALSFRLLRQHGFEVSQEAFSGFKDQNGNFLENLKEDIKAILSLYEASFLALEGENILDEAKVFAISHLKELSEEKIGKELAEQVNHALELPLHRRTQRLEAVWSIEAYRKKEDANQVLLELAILDYNMIQSVYQRDLRETSRWWRRVGLATKLHFARDRLIESFYWAVGVAFEPQYSDCRNSVAKMFSFVTIIDDIYDVYGTLDELELFTDAVERWDVNAINDLPDYMKLCFLALYNTINEIAYDNLKDKGENILPYLTKAWADLCNAFLQEAKWLYNKSTPTFDDYFGNAWKSSSGPLQLVFAYFAVVQNIKKEEIENLQKYHDTISRPSHIFRLCNDLASASAEIARGETANSVSCYMRTKGISEELATESVMNLIDETWKKMNKEKLGGSPFAKPFVETAINLARQSHCTYHNGDAHTSPDELTRKRVLSVICEPILPFERENLYFQGLEHHHHHH
modifications: TEV site
As to B1, the S.A. is given as 490 ± 20 nmol/mg/min and the “Variant S.A./WT S.A.” value is recorded as 1.0.

B2: SC: P. alba MEA G491S T536C (+) TEV; pDW111, SEQ ID NO: 89 (protein)
chain: MEARRSANYEPNSWDYDYLLSSDTDESIEVYKDKAKKLEAEVRREINNEKAEFLTLLELIDNVQRLGLGYRFESDIRGALDRFVSSGGFDAVTKTSLHGTALSFRLLRQHGFEVSQEAFSGFKDQNGNFLENLKEDIKAILSLYEASFLALEGENILDEAKVFAISHLKELSEEKIGKELAEQVNHALELPLHRRTQRLEAVWSIEAYRKKEDANQVLLELAILDYNMIQSVYQRDLRETSRWWRRVGLATKLHFARDRLIESFYWAVGVAFEPQYSDCRNSVAKMFSFVTIIDDIYDVYGTLDELELFTDAVERWDVNAINDLPDYMKLCFLALYNTINEIAYDNLKDKGENILPYLTKAWADLCNAFLQEAKWLYNKSTPTFDDYFGNAWKSSSGPLQLVFAYFAVVQNIKKEEIENLQKYHDTISRPSHIFRLCNDLASASAEIARGETANSVSCYMRTKGISEELATESVMNLIDETWKKMNKEKLSGSLFAKPFVETAINLARQSHCTYHNGDAHTSPDELTRKRVLSVICEPILPFERENLYFQGLEHHHHHH
modifications: TEV site
As to B2, the S.A. amounted to 440 ± 20 nmol/mg/min and the “Variant S.A./WT S.A.” value was found to be 0.9.

B3: G491S: P. alba IspS variant G491S; pDW100, strain DW398, SEQ ID NO: 67 (protein)
chain: MEARRSANYEPNSWDYDYLLSSDTDESIEVYKDKAKKLEAEVRREINNEKAEFLTLLELIDNVQRLGLGYRFESDIRGALDRFVSSGGFDAVTKTSLHGTALSFRLLRQHGFEVSQEAFSGFKDQNGNFLENLKEDIKAILSLYEASFLALEGENILDEAKVFAISHLKELSEEKIGKELAEQVNHALELPLHRRTQRLEAVWSIEAYRKKEDANQVLLELAILDYNMIQSVYQRDLRETSRWWRRVGLATKLHFARDRLIESFYWAVGVAFEPQYSDCRNSVAKMFSFVTIIDDIYDVYGTLDELELFTDAVERWDVNAINDLPDYMKLCFLALYNTINEIAYDNLKDKGENILPYLTKAWADLCNAFLQEAKWLYNKSTPTFDDYFGNAWKSSSGPLQLVFAYFAVVQNIKKEEIENLQKYHDTISRPSHIFRLCNDLASASAEIARGETANSVSCYMRTKGISEELATESVMNLIDETWKKMNKEKLSGSLFAKPFVETAINLARQSHCTYHNGDAHTSPDELTRKRVLSVITEPILPFERENLYFQGLEHHHHHH
B3: the S.A. is listed as 480 ± 20 nmol/mg/min and the “Variant S.A./WT S.A.” value came out at 1.0.

B4: NS: P. alba MEA A453N G491S (+) TEV; pDW103, SEQ ID NO: 73 (protein)
chain: MEARRSANYEPNSWDYDYLLSSDTDESIEVYKDKAKKLEAEVRREINNEKAEFLTLLELIDNVQRLGLGYRFESDIRGALDRFVSSGGFDAVTKTSLHGTALSFRLLRQHGFEVSQEAFSGFKDQNGNFLENLKEDIKAILSLYEASFLALEGENILDEAKVFAISHLKELSEEKIGKELAEQVNHALELPLHRRTQRLEAVWSIEAYRKKEDANQVLLELAILDYNMIQSVYQRDLRETSRWWRRVGLATKLHFARDRLIESFYWAVGVAFEPQYSDCRNSVAKMFSFVTIIDDIYDVYGTLDELELFTDAVERWDVNAINDLPDYMKLCFLALYNTINEIAYDNLKDKGENILPYLTKAWADLCNAFLQEAKWLYNKSTPTFDDYFGNAWKSSSGPLQLVFAYFAVVQNIKKEEIENLQKYHDTISRPSHIFRLCNDLASASAEIARGETNNSVSCYMRTKGISEELATESVMNLIDETWKKMNKEKLSGSLFAKPFVETAINLARQSHCTYHNGDAHTSPDELTRKRVLSVITEPILPFERENLYFQGLEHHHHHH
modifications: TEV site
As to B4, the S.A. is given as 480 ± 40 nmol/mg/min and the “Variant S.A./WT S.A.” value is 1.0.

B5: NC: P. alba MEA A453N T536C (+) TEV; pDW105, SEQ ID NO: 77 (protein)
chain: MEARRSANYEPNSWDYDYLLSSDTDESIEVYKDKAKKLEAEVRREINNEKAEFLTLLELIDNVQRLGLGYRFESDIRGALDRFVSSGGFDAVTKTSLHGTALSFRLLRQHGFEVSQEAFSGFKDQNGNFLENLKEDIKAILSLYEASFLALEGENILDEAKVFAISHLKELSEEKIGKELAEQVNHALELPLHRRTQRLEAVWSIEAYRKKEDANQVLLELAILDYNMIQSVYQRDLRETSRWWRRVGLATKLHFARDRLIESFYWAVGVAFEPQYSDCRNSVAKMFSFVTIIDDIYDVYGTLDELELFTDAVERWDVNAINDLPDYMKLCFLALYNTINEIAYDNLKDKGENILPYLTKAWADLCNAFLQEAKWLYNKSTPTFDDYFGNAWKSSSGPLQLVFAYFAVVQNIKKEEIENLQKYHDTISRPSHIFRLCNDLASASAEIARGETNNSVSCYMRTKGISEELATESVMNLIDETWKKMNKEKLGGSLFAKPFVETAINLARQSHCTYHNGDAHTSPDELTRKRVLSVICEPILPFERENLYFQGLEHHHHHH
modifications: TEV site
As for B5, the S.A. is 420 ± 30 nmol/mg/min and the “Variant S.A./WT S.A.” value is 0.9.

B6: NP: P. alba MEA A453N L494P (+) TEV; pDW104, SEQ ID NO: 75 (protein)
chain: MEARRSANYEPNSWDYDYLLSSDTDESIEVYKDKAKKLEAEVRREINNEKAEFLTLLELIDNVQRLGLGYRFESDIRGALDRFVSSGGFDAVTKTSLHGTALSFRLLRQHGFEVSQEAFSGFKDQNGNFLENLKEDIKAILSLYEASFLALEGENILDEAKVFAISHLKELSEEKIGKELAEQVNHALELPLHRRTQRLEAVWSIEAYRKKEDANQVLLELAILDYNMIQSVYQRDLRETSRWWRRVGLATKLHFARDRLIESFYWAVGVAFEPQYSDCRNSVAKMFSFVTIIDDIYDVYGTLDELELFTDAVERWDVNAINDLPDYMKLCFLALYNTINEIAYDNLKDKGENILPYLTKAWADLCNAFLQEAKWLYNKSTPTFDDYFGNAWKSSSGPLQLVFAYFAVVQNIKKEEIENLQKYHDTISRPSHIFRLCNDLASASAEIARGETNNSVSCYMRTKGISEELATESVMNLIDETWKKMNKEKLGGSPFAKPFVETAINLARQSHCTYHNGDAHTSPDELTRKRVLSVITEPILPFERENLYFQGLEHHHHHH
modifications: TEV site
In the case of B6, the S.A. is recorded as 490 ± 20 nmol/mg/min and the “Variant S.A./WT S.A.” value is given as 1.0.

B7: NPC: P. alba MEA A453N L494P T536C (+) TEV; pDW108, SEQ ID NO: 83 (protein)
chain: MEARRSANYEPNSWDYDYLLSSDTDESIEVYKDKAKKLEAEVRREINNEKAEFLTLLELIDNVQRLGLGYRFESDIRGALDRFVSSGGFDAVTKTSLHGTALSFRLLRQHGFEVSQEAFSGFKDQNGNFLENLKEDIKAILSLYEASFLALEGENILDEAKVFAISHLKELSEEKIGKELAEQVNHALELPLHRRTQRLEAVWSIEAYRKKEDANQVLLELAILDYNMIQSVYQRDLRETSRWWRRVGLATKLHFARDRLIESFYWAVGVAFEPQYSDCRNSVAKMFSFVTIIDDIYDVYGTLDELELFTDAVERWDVNAINDLPDYMKLCFLALYNTINEIAYDNLKDKGENILPYLTKAWADLCNAFLQEAKWLYNKSTPTFDDYFGNAWKSSSGPLQLVFAYFAVVQNIKKEEIENLQKYHDTISRPSHIFRLCNDLASASAEIARGETNNSVSCYMRTKGISEELATESVMNLIDETWKKMNKEKLGGSPFAKPFVETAINLARQSHCTYHNGDAHTSPDELTRKRVLSVICEPILPFERENLYFQGLEHHHHHH
modifications: TEV site
Consider B7, for which the S.A. is 440 ± 20 nmol/mg/min and the “Variant S.A./WT S.A.” value amounted to 0.9.
